Measurements reported in patent US7872117.

Molecular target: murine c-Met polypeptide (Met receptor as expressed on DA3 mouse mammary adenocarcinoma cells) (mouse) (UniProt P16056)
Test: cell-based or functional assay

in vitro invasion through Matrigel (invading cells per filter, DA3 cells, HGF/SF 100 ng/ml) (cells per filter): 80
Substance: Hepatocyte growth factor/scatter factor (HGF/SF) (ligand)
